Data reported in patent publication US20120172293A1 (Takeda / Millennium, published 2012).
Starred links: 1 amine or outer side, 2 acyl side, 3 side chain; linkers in the order of their positions; H or OH if unused. Non-standard residues stand in square brackets, D forms with d. Primed or numbered codes have the meaning given here. *: point of attachment. Ser(Me)(3) = methylserine, COC[C@H](N[*:1])C(=O)[*:2]; Azetidine3carboxylic = O=C(C1CN([*:1])C1)[*:2]; dHyp = O=C(O)[C@H]1C[C@H](O)CN1; Cha = N[C@@H](CC1CCCCC1)C(=O)O; Isobutyryl = CC(C)C(=O)*; NMeA = CN[C@@H](C)C(=O)O; dNMeA = CN[C@H](C)C(=O)O; Nva = CCC[C@H](N)C(=O)O; Abu = CC[C@H](N)C(=O)O; Nleu = CC(C)CNCC(=O)O; Aib = CC(C)(N)C(=O)O; Bz = O=C(c1ccccc1)*; Sar = CNCC(=O)O

B1: Ac-[D-MeAla24, Cha27,28,36, Aib31]-PYY(23-36) (peptide)
peptide: Ac-S[dNMeA]RH[Cha][Cha]NL[Aib]TRQR[Cha]-NH2
SMILES: CC(=O)N[C@@H](CO)C(=O)N(C)[C@H](C)C(=O)N[C@@H](CCCNC(=N)N)C(=O)N[C@@H](Cc1c[nH]cn1)C(=O)N[C@@H](CC1CCCCC1)C(=O)N[C@@H](CC1CCCCC1)C(=O)N[C@@H](CC(N)=O)C(=O)N[C@@H](CC(C)C)C(=O)NC(C)(C)C(=O)N[C@H](C(=O)N[C@@H](CCCNC(=N)N)C(=O)N[C@@H](CCC(N)=O)C(=O)N[C@@H](CCCNC(=N)N)C(=O)N[C@@H](CC1CCCCC1)C(N)=O)[C@@H](C)O
B2: Benzoyl-[Nva27, Cha28,36, Aib31]-PYY(25-36) (peptide)
peptide: Bz-RH[Nva][Cha]NL[Aib]TRQR[Cha]-NH2
SMILES: CCC[C@H](NC(=O)[C@H](Cc1c[nH]cn1)NC(=O)[C@H](CCCNC(=N)N)NC(=O)c1ccccc1)C(=O)N[C@@H](CC1CCCCC1)C(=O)N[C@@H](CC(N)=O)C(=O)N[C@@H](CC(C)C)C(=O)NC(C)(C)C(=O)N[C@H](C(=O)N[C@@H](CCCNC(=N)N)C(=O)N[C@@H](CCC(N)=O)C(=O)N[C@@H](CCCNC(=N)N)C(=O)N[C@@H](CC1CCCCC1)C(N)=O)[C@@H](C)O
B3: Ac-[Aze(3)24, Cha27,28,36, Aib31]-PYY(23-36) (peptide)
peptide: Ac-S[Azetidine3carboxylic]RH[Cha][Cha]NL[Aib]TRQR[Cha]-NH2
SMILES: CC(=O)N[C@@H](CO)C(=O)N1CC(C(=O)N[C@@H](CCCNC(=N)N)C(=O)N[C@@H](Cc2c[nH]cn2)C(=O)N[C@@H](CC2CCCCC2)C(=O)N[C@@H](CC2CCCCC2)C(=O)N[C@@H](CC(N)=O)C(=O)N[C@@H](CC(C)C)C(=O)NC(C)(C)C(=O)N[C@H](C(=O)N[C@@H](CCCNC(=N)N)C(=O)N[C@@H](CCC(N)=O)C(=O)N[C@@H](CCCNC(=N)N)C(=O)N[C@@H](CC2CCCCC2)C(N)=O)[C@@H](C)O)C1
B4: Ac-[D-Hyp24, Cha27,28,36, Aib31]-PYY(23-36) (peptide)
peptide: Ac-S[dHyp]RH[Cha][Cha]NL[Aib]TRQR[Cha]-NH2
SMILES: CC(=O)N[C@@H](CO)C(=O)N1C[C@@H](O)C[C@@H]1C(=O)N[C@@H](CCCNC(=N)N)C(=O)N[C@@H](Cc1c[nH]cn1)C(=O)N[C@@H](CC1CCCCC1)C(=O)N[C@@H](CC1CCCCC1)C(=O)N[C@@H](CC(N)=O)C(=O)N[C@@H](CC(C)C)C(=O)NC(C)(C)C(=O)N[C@H](C(=O)N[C@@H](CCCNC(=N)N)C(=O)N[C@@H](CCC(N)=O)C(=O)N[C@@H](CCCNC(=N)N)C(=O)N[C@@H](CC1CCCCC1)C(N)=O)[C@@H](C)O
B5: Ac-[D-Ser23, MeAla24, Cha27,28,36, Aib31]-PYY(23-36) (peptide)
peptide: Ac-[dS][NMeA]RH[Cha][Cha]NL[Aib]TRQR[Cha]-NH2
SMILES: CC(=O)N[C@H](CO)C(=O)N(C)[C@@H](C)C(=O)N[C@@H](CCCNC(=N)N)C(=O)N[C@@H](Cc1c[nH]cn1)C(=O)N[C@@H](CC1CCCCC1)C(=O)N[C@@H](CC1CCCCC1)C(=O)N[C@@H](CC(N)=O)C(=O)N[C@@H](CC(C)C)C(=O)NC(C)(C)C(=O)N[C@H](C(=O)N[C@@H](CCCNC(=N)N)C(=O)N[C@@H](CCC(N)=O)C(=O)N[C@@H](CCCNC(=N)N)C(=O)N[C@@H](CC1CCCCC1)C(N)=O)[C@@H](C)O
B6: Ac-[Phe23, D-Pro24, Abu26, Cha27,28,36, Aib31]-PYY(23-36) (peptide)
peptide: Ac-F[dP]R[Abu][Cha][Cha]NL[Aib]TRQR[Cha]-NH2
SMILES: CC[C@H](NC(=O)[C@H](CCCNC(=N)N)NC(=O)[C@H]1CCCN1C(=O)[C@H](Cc1ccccc1)NC(C)=O)C(=O)N[C@@H](CC1CCCCC1)C(=O)N[C@@H](CC1CCCCC1)C(=O)N[C@@H](CC(N)=O)C(=O)N[C@@H](CC(C)C)C(=O)NC(C)(C)C(=O)N[C@H](C(=O)N[C@@H](CCCNC(=N)N)C(=O)N[C@@H](CCC(N)=O)C(=O)N[C@@H](CCCNC(=N)N)C(=O)N[C@@H](CC1CCCCC1)C(N)=O)[C@@H](C)O
B7: Ac-[Ser(Me)23, D-Pro24, Abu26, Cha27,28,36, Aib31]-PYY(23-36) (peptide)
peptide: Ac-[Ser(Me)(3)][dP]R[Abu][Cha][Cha]NL[Aib]TRQR[Cha]-NH2
SMILES: CC[C@H](NC(=O)[C@H](CCCNC(=N)N)NC(=O)[C@H]1CCCN1C(=O)[C@H](COC)NC(C)=O)C(=O)N[C@@H](CC1CCCCC1)C(=O)N[C@@H](CC1CCCCC1)C(=O)N[C@@H](CC(N)=O)C(=O)N[C@@H](CC(C)C)C(=O)NC(C)(C)C(=O)N[C@H](C(=O)N[C@@H](CCCNC(=N)N)C(=O)N[C@@H](CCC(N)=O)C(=O)N[C@@H](CCCNC(=N)N)C(=O)N[C@@H](CC1CCCCC1)C(N)=O)[C@@H](C)O
B8: Ac-[Abu23, D-Pro24, Abu26, Cha27,28,36, Aib31]-PYY(23-36) (peptide)
peptide: Ac-[Abu][dP]R[Abu][Cha][Cha]NL[Aib]TRQR[Cha]-NH2
SMILES: CC[C@H](NC(=O)[C@H](CCCNC(=N)N)NC(=O)[C@H]1CCCN1C(=O)[C@H](CC)NC(C)=O)C(=O)N[C@@H](CC1CCCCC1)C(=O)N[C@@H](CC1CCCCC1)C(=O)N[C@@H](CC(N)=O)C(=O)N[C@@H](CC(C)C)C(=O)NC(C)(C)C(=O)N[C@H](C(=O)N[C@@H](CCCNC(=N)N)C(=O)N[C@@H](CCC(N)=O)C(=O)N[C@@H](CCCNC(=N)N)C(=O)N[C@@H](CC1CCCCC1)C(N)=O)[C@@H](C)O
B9: Isobutanoyl-[Abu26, Cha27,36, His28, Aib31]-PYY(25-36) (peptide)
peptide: Isobutyryl-R[Abu][Cha]HNL[Aib]TRQR[Cha]-NH2
SMILES: CC[C@H](NC(=O)[C@H](CCCNC(=N)N)NC(=O)C(C)C)C(=O)N[C@@H](CC1CCCCC1)C(=O)N[C@@H](Cc1c[nH]cn1)C(=O)N[C@@H](CC(N)=O)C(=O)N[C@@H](CC(C)C)C(=O)NC(C)(C)C(=O)N[C@H](C(=O)N[C@@H](CCCNC(=N)N)C(=O)N[C@@H](CCC(N)=O)C(=O)N[C@@H](CCCNC(=N)N)C(=O)N[C@@H](CC1CCCCC1)C(N)=O)[C@@H](C)O
B10: Benzoyl-[Asn26, Cha27,28,36, Aib31]-PYY(25-36) (peptide)
peptide: Bz-RN[Cha][Cha]NL[Aib]TRQR[Cha]-NH2
SMILES: CC(C)C[C@H](NC(=O)[C@H](CC(N)=O)NC(=O)[C@H](CC1CCCCC1)NC(=O)[C@H](CC1CCCCC1)NC(=O)[C@H](CC(N)=O)NC(=O)[C@H](CCCNC(=N)N)NC(=O)c1ccccc1)C(=O)NC(C)(C)C(=O)N[C@H](C(=O)N[C@@H](CCCNC(=N)N)C(=O)N[C@@H](CCC(N)=O)C(=O)N[C@@H](CCCNC(=N)N)C(=O)N[C@@H](CC1CCCCC1)C(N)=O)[C@@H](C)O
B11: Isobutanoyl-[Abu26, Cha27,36, Ser28, Aib31]-PYY(25-36) (peptide)
peptide: Isobutyryl-R[Abu][Cha]SNL[Aib]TRQR[Cha]-NH2
SMILES: CC[C@H](NC(=O)[C@H](CCCNC(=N)N)NC(=O)C(C)C)C(=O)N[C@@H](CC1CCCCC1)C(=O)N[C@@H](CO)C(=O)N[C@@H](CC(N)=O)C(=O)N[C@@H](CC(C)C)C(=O)NC(C)(C)C(=O)N[C@H](C(=O)N[C@@H](CCCNC(=N)N)C(=O)N[C@@H](CCC(N)=O)C(=O)N[C@@H](CCCNC(=N)N)C(=O)N[C@@H](CC1CCCCC1)C(N)=O)[C@@H](C)O
B12: Benzoyl-[His27, Cha28,36, Aib31]-PYY(25-36) (peptide)
peptide: Bz-RHH[Cha]NL[Aib]TRQR[Cha]-NH2
SMILES: CC(C)C[C@H](NC(=O)[C@H](CC(N)=O)NC(=O)[C@H](CC1CCCCC1)NC(=O)[C@H](Cc1c[nH]cn1)NC(=O)[C@H](Cc1c[nH]cn1)NC(=O)[C@H](CCCNC(=N)N)NC(=O)c1ccccc1)C(=O)NC(C)(C)C(=O)N[C@H](C(=O)N[C@@H](CCCNC(=N)N)C(=O)N[C@@H](CCC(N)=O)C(=O)N[C@@H](CCCNC(=N)N)C(=O)N[C@@H](CC1CCCCC1)C(N)=O)[C@@H](C)O
B13: Ac-[D-Ser23, Sar24, Cha27,28,36, Aib31]-PYY(23-36) (peptide)
peptide: Ac-[dS][Sar]RH[Cha][Cha]NL[Aib]TRQR[Cha]-NH2
SMILES: CC(=O)N[C@H](CO)C(=O)N(C)CC(=O)N[C@@H](CCCNC(=N)N)C(=O)N[C@@H](Cc1c[nH]cn1)C(=O)N[C@@H](CC1CCCCC1)C(=O)N[C@@H](CC1CCCCC1)C(=O)N[C@@H](CC(N)=O)C(=O)N[C@@H](CC(C)C)C(=O)NC(C)(C)C(=O)N[C@H](C(=O)N[C@@H](CCCNC(=N)N)C(=O)N[C@@H](CCC(N)=O)C(=O)N[C@@H](CCCNC(=N)N)C(=O)N[C@@H](CC1CCCCC1)C(N)=O)[C@@H](C)O
B14: Ac-[N(iBu)Gly24, Cha27,28,36, Aib31]-PYY(23-36) (peptide)
peptide: Ac-S[Nleu]RH[Cha][Cha]NL[Aib]TRQR[Cha]-NH2
SMILES: CC(=O)N[C@@H](CO)C(=O)N(CC(=O)N[C@@H](CCCNC(=N)N)C(=O)N[C@@H](Cc1c[nH]cn1)C(=O)N[C@@H](CC1CCCCC1)C(=O)N[C@@H](CC1CCCCC1)C(=O)N[C@@H](CC(N)=O)C(=O)N[C@@H](CC(C)C)C(=O)NC(C)(C)C(=O)N[C@H](C(=O)N[C@@H](CCCNC(=N)N)C(=O)N[C@@H](CCC(N)=O)C(=O)N[C@@H](CCCNC(=N)N)C(=O)N[C@@H](CC1CCCCC1)C(N)=O)[C@@H](C)O)CC(C)C
B15: Isobutanoyl-[Abu26, Cha27,36, Gln28, Aib31]-PYY(25-36) (peptide)
peptide: Isobutyryl-R[Abu][Cha]QNL[Aib]TRQR[Cha]-NH2
SMILES: CC[C@H](NC(=O)[C@H](CCCNC(=N)N)NC(=O)C(C)C)C(=O)N[C@@H](CC1CCCCC1)C(=O)N[C@@H](CCC(N)=O)C(=O)N[C@@H](CC(N)=O)C(=O)N[C@@H](CC(C)C)C(=O)NC(C)(C)C(=O)N[C@H](C(=O)N[C@@H](CCCNC(=N)N)C(=O)N[C@@H](CCC(N)=O)C(=O)N[C@@H](CCCNC(=N)N)C(=O)N[C@@H](CC1CCCCC1)C(N)=O)[C@@H](C)O

Target: human Y2 receptor (human) (UniProt P49146)
Sequence (P49146 whole entry): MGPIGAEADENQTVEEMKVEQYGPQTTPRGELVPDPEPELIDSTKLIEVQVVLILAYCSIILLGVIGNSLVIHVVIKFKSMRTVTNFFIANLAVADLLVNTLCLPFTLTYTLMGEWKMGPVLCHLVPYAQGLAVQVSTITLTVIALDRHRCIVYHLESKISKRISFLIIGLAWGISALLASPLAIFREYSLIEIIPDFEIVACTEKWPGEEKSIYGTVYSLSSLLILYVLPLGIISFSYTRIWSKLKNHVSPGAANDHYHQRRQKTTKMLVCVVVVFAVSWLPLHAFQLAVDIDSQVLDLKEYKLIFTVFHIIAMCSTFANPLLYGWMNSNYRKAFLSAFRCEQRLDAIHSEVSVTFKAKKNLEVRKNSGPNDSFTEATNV
Experiment: cell-based or functional assay

GBA EC50 Ratio (vs PYY(3-36)), [35S]GTPγS	Binder
2.2	B1
8.6	B2
4.7	B3
0.9	B4
5.1	B5
5.9	B6
3.8	B7
4	B8
13	B9
21	B10
35	B11
4.3	B12
5.3	B13
8.4	B14
30	B15

Target: human Y2 receptor (human) (UniProt P49146)
Experiment: RBA: [125I]-PYY displacement, hY2R/CHO membranes

IC50 Ratio (vs PYY(3-36))	Binder
3.4	B1
13	B2
11	B3
1.1	B4
6.1	B5
12	B6
5.2	B7
6.9	B8
19	B9
19	B10
49	B11
5.6	B12
6.6	B13
20	B14
45	B15
